Data from patent publication US11278600B2, “Human alpha-galactosidase variants” (Codexis, Inc., priority 2014, dated 2022).

Assays:
Type in all cases: biochemical
[1] = HTP-analysis of yeast culture supernatants, no challenge (MUGal hydrolysis); details: activity of the variant/activity of Rd7BB (SEQ ID NO: 44)
Summary of the method: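 GLA variants expressed in yeast INVSc1, secreted into SD-Ura broth over 66-84 h at 30° C; clarified supernatants tested without challenge. Supernatant mixed with McIlvaine buffer pH 4.8 and 2 mM MUGal (citrate/KCl, pH 4.6), 37° C for 30-180 min, carbonate-quenched, fluorescence Ex 355/Em 448 nm.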

[2] = HTP-analysis of supernatants pretreated with acid (MUGal hydrolysis); details: activity of the variant/activity of Rd7BB (SEQ ID NO: 44); challenge at pH 3.5
Summary of the method: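 GLA variants were secreted from INVSc1 yeast grown 66-84 h at 30° C. in SD-Ura with 2% glucose; supernatants were mixed with McIlvaine buffer pH 3.3-4.3 and held at 37° C. for 1-3 h. Residual activity on MUGal at pH 4.8 was then measured by fluorescence.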

[3] = HTP-analysis of supernatants pretreated with base (MUGal hydrolysis); details: activity of the variant/activity of Rd7BB (SEQ ID NO: 44); challenge at pH 7.5
Summary of the method: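 GLA variants secreted from yeast INVSc1; culture supernatants pre-incubated with McIlvaine buffer pH 7.0–8.2 or 200 mM bicarbonate pH 9.1–9.7 at 37° C. for 1–18 h. Residual activity: MUGal (4 mM stock) hydrolysis at pH 4.3–4.8, 37° C., 30–180 min, carbonate quench; fluorescence Ex 355/Em 448 nm.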

| Molecule | Relative Activity of GLA Variants After No Challenge (NC) [1] | Relative Activity of GLA Variants After Challenge at pH 3.5 [2] | Relative Activity of GLA Variants After Challenge at pH 7.5 [3] |
| --- | --- | --- | --- |
| 661 (protein, Synthetic Polypeptide sequence of Variant No. 661 of mature Human GLA) LDNGLARTPTMGWLHWERFMCNLDCQEEPDSCISEKLFMEMAERMVTEGWKDAGYEYLCIDDCWMAPQRDSEGRLQADPQRFPHGIRQLANHVHSKGLKLGIYADVGNKTCAGFPGSFGYYDIDAQTFADWGVDLLKFDGCYCDSLENLADGYKHMSLALNRTGRPIVYSCEWPLYMWPFQKPNYTEIRQYCNHCRNFADIDDSWASIKSILDWTSRNQERIVDVAGPGGWNDPDMLVIGNFGLSWDQQVTQMALWAIMAAPLFMSNDLRAISPQAKALLQDKDVIAINQDPLGKQGYQLRKGDNFEVWERPLSGDAWAVAIINRQEIGGPRSYTIPVASLGKGVACNPACFITQLLPVKRQLGFYNWTSRLKSHINPTGTVLLQLENTMQTSLKDLL | − (<0.5 relative activity to Rd7BB (SEQ ID NO: 44)) | − (<0.5 relative activity to Rd7BB (SEQ ID NO: 44)) | − (<0.5 relative activity to Rd7BB (SEQ ID NO: 44)) |
| 662 (protein, Synthetic Polypeptide sequence of Variant No. 662 of mature Human GLA) LDNGLARTPTMGWLHWERFMCNLDCQEEPDSCISEKLFMEMAERMVTEGWKDAGYEYLCIDDCWMAPQRDSEGRLQADPQRFPHGIRQLANHVHSKGLKLGIYADVGNKTCAGFPGSFGYYDIDAQTFADWGVDLLKFDGCYCDSLENLADGYKHMSLALNRTGRPIVYSCEWPLYMWPFQKPNYTEIRQYCNHWRNFADIDDSWASIKSILDWTSRNQERIVDVAGPGGWNDPDMLIIGNFGLSWDQQVTQMALWAIMAAPLFMSNDLRAISPQAKALLQDKDVIAINQDPLGKQGYQLRKGDNFEVWERPLSGDAWAVAIINRQEIGGPRSYTIPVASLGKGVACNPACFITQLLPVKRQLGFYNWTSRLKSHINPTGTVLLQLENTMQTSLKDLL | + (>0.5 to 1.5 relative activity over Rd7BB (SEQ ID NO: 44)) | + (>0.5 to 1.5 relative activity over Rd7BB (SEQ ID NO: 44)) | + (>0.5 to 1.5 relative activity over Rd7BB (SEQ ID NO: 44)) |
| 663 (protein, Synthetic Polypeptide sequence of Variant No. 663 of mature Human GLA) LDNGLARTPTMGWLHWERFMCNLDCQEEPDSCISEKLFMEMADRMVTEGWKDAGYEYLCIDDCWMAPQRDSEGRLQADPQRFPHGIRQLANHVHSKGLKLGIYADVGNKTCAGFPGSFGYYDIDAQTFADWGVDLLKFDGCYCDSLENLADGYKHMSLALNRTGRPIVYSCEWPLYMWPFQKPNYTEIRQYCNHWRNFADIDDSWASIKSILDWTSRNQERIVDVAGPGGWNDPDMLVIGNFGLSWDQQVTQMALWAIMAGPLFMSNDLRAISPQAKALLQDKDVIAINQDPLGKQGYQLRKGDNFEVWERPLSGDAWAVAIINRQEIGGPRSYTIPVASLGKGVACNPACFITQLLPVKRQLGFYNATSRLKSHINPTGTVLLQLENTMQTSLKDLL | + (>0.5 to 1.5 relative activity over Rd7BB (SEQ ID NO: 44)) | + (>0.5 to 1.5 relative activity over Rd7BB (SEQ ID NO: 44)) | − (<0.5 relative activity to Rd7BB (SEQ ID NO: 44)) |
| 664 (protein, Synthetic Polypeptide sequence of Variant No. 664 of mature Human GLA) LDNGLARTPPMGWLHWERFMCNLDCQEEPDSCISEKLFMEMAERMVTEGWKDAGYEYLCIDDCWMAPQRDSEGRLQADPQRFPHGIRQLANHVHSKGLKLGIYADVGNKTCAGFPGSFGYYDIDAQTFADWGVDLLKFDGCYCDSLENLADGYKHMSLALNRTGRPIVYSCEWPLYMWPFQKPNYTEIRQYCNHWRNFADIDDSWASIKSILDWTSRNQERIVDVAGPGGWNDPDMLVIGNFGLSWDQQVTHRELWAIMAGPLFMSNDLRAISPQAKALLQDKDVIAINQDPLGKQGYQLRKGDNFEVWERPLSGDAWAVAIINRQEIGGPRSYTIPVASLGKGVACNPACFITQLLPVKRQLGFYNWTSRLKSHINPTGTVLLQLENTMQTSLKDLL | − (<0.5 relative activity to Rd7BB (SEQ ID NO: 44)) | − (<0.5 relative activity to Rd7BB (SEQ ID NO: 44)) | − (<0.5 relative activity to Rd7BB (SEQ ID NO: 44)) |
| 665 (protein, Synthetic Polypeptide sequence of Variant No. 665 of mature Human GLA) LDNGLACTPTMGWLHWERFMCNLDCQEEPDSCISEKLFMEMAERMVTEGWKDAGYEYLCIDDCWMAPQRDSEGRLQADPQRFPHGIRQLANHVHSKGLKLGIYADVGNKTCAGFPGSFGYYDIDAQTFADWGVDLLKFDGCYCDSLENLADGYKHMSLALNRTGRPIVYSCEWPLYMWPFQKPNYTEIRQYCNHWRNFADIDDSWASIKSILDWTSRNQERIVDVAGPGGWNDPDMLVIGNFGLSWDQQVTQMALWAIMAAPLFMSNDLRAISPQAKALLQDKDVIAINQDPLGKQGYQLRKGDNFEVWERPLSGDAWAVAIINRQEIGGPRSYTIPVASLGKGVACNPACFITQLLPVKRQLGFYNATSRLKSHINPTGTVLLQLENTMQTSLKDLL | + (>0.5 to 1.5 relative activity over Rd7BB (SEQ ID NO: 44)) | + (>0.5 to 1.5 relative activity over Rd7BB (SEQ ID NO: 44)) | + (>0.5 to 1.5 relative activity over Rd7BB (SEQ ID NO: 44)) |
| 666 (protein, Synthetic Polypeptide sequence of Variant No. 666 of mature Human GLA) LDNGLARTPTMGWLHWERFMCNLDCQEEPDSCISEKLFMEMAERMVTEGWKDAGYEYLCIDDCWMAPQRDSEGRLQADPQRFPHGIRQLANHVHSKGLKLGIYADVGNKTCAGFPGSFGYYDIDAQTFADWGVDLLKFDGCYCDSLENLADGYKHMSLALNRTGRPIVYSCEWPLYMWPFQKPNYTEIRQYCNHWRNFADIDDSWASIKSILDWTSRNQERIVDVAGLGGWNDPDMLVIGNFGLSWDQQVTQMALWAIMAAPLFMSNDLRAISPQAKALLQDKDVIAINQDPLGKQGYQLRKGDNFEVWERPLSGDAWAVAIINRQEIGGPRSYTIPVASLGKGVACNPACFITQLLPVKRQLGFYNWTSRLKSHINPTGTVLLQLENTMQTSLKDLL | + (>0.5 to 1.5 relative activity over Rd7BB (SEQ ID NO: 44)) | + (>0.5 to 1.5 relative activity over Rd7BB (SEQ ID NO: 44)) | − (<0.5 relative activity to Rd7BB (SEQ ID NO: 44)) |
| 667 (protein, Synthetic Polypeptide sequence of Variant No. 667 of mature Human GLA) LDNGLARTPTMGWLHWERFMCNLDCQEEPGSCISEKLFMEMAERMVTEGWKDAGYEYLCIDDCWMAPQRDSEGRLQADPQRFPHGIRQLANHVHSKGLKLGIYADVGNKTCAGFPGSFGYYDIDAQTFADWGVDLLKFDGCYCDSLENLADGYKHMSLALNRTGRPIVYSCEWPLYMWPFQKPNYTEIRQYCNHWRNFADIDDSWASIKSILDWTSRNQERIVDVAGPGGWNDPDMLVIGNFGLSWDQQVTQMALWAIMAAPLFMSNDLRAISPQAKALLQDKDVIAINQDPLGKQGYQLRKGDNFEVWERPLSGDAWAVAIINRQEIGGPRSYTIPVASLGKGVACNPACFITQLLPVKRQLGFYNWTSRLKSHINPTGTVLLQLENTMQTSLKDLL | + (>0.5 to 1.5 relative activity over Rd7BB (SEQ ID NO: 44)) | + (>0.5 to 1.5 relative activity over Rd7BB (SEQ ID NO: 44)) | + (>0.5 to 1.5 relative activity over Rd7BB (SEQ ID NO: 44)) |
| 639 (protein, Synthetic Polypeptide sequence of Variant No. 639 of mature Human GLA) LDNGLARTPTMGWLHWERFMCNLDCQEEPDSCISEKLFEEMAERMVTEGWKDAGYEYLCIDDCWMAPQRDSEGRLQADPQRFPHGIRQLANHVHSKGLKLGIYADVGNKTCAGFPGSFGYYDIDAQTFADWGVDLLKFDGCYCDSLENLADGYKHMSLALNRTGRPIVYSCEWPLYMWPFQKPNYTEIRQYCNHWRNFADIDDSWASIKSILDWTSRNQERIVDVAGPGGWNDPDMLVIGNFGLSWYQQVTQMALWAIMAAPLFMSNDLRAISPQAKALLQDKDVIAINQDPLGKQGYQLRKGDNFEVWERPLSGDAWAVAIINRQEIGGPRSYTIPVASLGKGVACNPACFITQLLPVKRQLGFYNWTSRLKSHINPTGTVLLQLENTMQTSLKDLL | − (<0.5 relative activity to Rd7BB (SEQ ID NO: 44)) | − (<0.5 relative activity to Rd7BB (SEQ ID NO: 44)) | − (<0.5 relative activity to Rd7BB (SEQ ID NO: 44)) |
